Results: the supplement of paper PMC11246515
± gives the standard deviation of the averaged measurements.

Assay: total protein half-life in vivo (active degradation + dilution); higher = more stable protein
[1] = E. coli NCM3722 delta-clpP delta-lon delta-hslV, growth: N-lim chemostat, doubling time 6 h
[2] = E. coli NCM3722 delta-clpP, growth: N-lim chemostat, doubling time 6 h
[3] = E. coli NCM3722 delta-hslV, growth: N-lim chemostat, doubling time 6 h
[4] = E. coli NCM3722 delta-lon, growth: N-lim chemostat, doubling time 6 h
[5] = E. coli NCM3722 delta-smpB, growth: N-lim chemostat, doubling time 6 h
[6] = wild type E. coli NCM3722, growth: C-lim chemostat, doubling time 3 h
[7] = wild type E. coli NCM3722, growth: C-lim chemostat, doubling time 6 h
[8] = wild type E. coli NCM3722, growth: C-lim chemostat, doubling time 12 h
[9] = wild type E. coli NCM3722, growth: N-lim chemostat, doubling time 6 h
[10] = wild type E. coli NCM3722, growth: N-lim chemostat, doubling time 12 h
[11] = wild type E. coli NCM3722, growth: P-lim chemostat, doubling time 6 h
[12] = wild type E. coli NCM3722, growth: P-lim chemostat, doubling time 12 h

Row | Sequence | total protein half-life in vivo [1] | total protein half-life in vivo [2] | total protein half-life in vivo [3] | total protein half-life in vivo [4] | total protein half-life in vivo [5] | total protein half-life in vivo [6] | total protein half-life in vivo [7] | total protein half-life in vivo [8] | total protein half-life in vivo [9] | total protein half-life in vivo [10] | total protein half-life in vivo [11] | total protein half-life in vivo [12]
1 | MLKVEMLSTGDEVLHGQIVDTNAAWLADFFFHQGLPLSRRNTVGDNLDDLVTILRERSQHADVLIVNGGLGPTSDDLSALAAATAKGEGLVLHEAWLKEMERYFHERGRVMAPSNRKQAELPASAEFINNPVGTACGFAVQLNRCLMFFTPGVPSEFKVMVEHEILPRLRERFSLPQPPVCLRLTTFGRSESDLAQSLDTLQLPPGVTMGYRSSMPIIELKLTGPASEQQAMEKLWLDVKRVAGQSVIFEGTEGLPAQISRELQNRQFSLTLSEQFTGGLLALQLSRAGAPLLACEVVPSQEETLAQTAHWITERRANHFAGLALAVSGFENEHLNFALATPDGTFALRVRFSTTRYSLAIRQEVCAMMALNMLRRWLNGQDIASEHGWIEVVESMTLSV | 4.98 ± 0.18 h | 4.36 ± 0.044 h | 4.01 ± 0.17 h | 4.79 ± 0.35 h | 4.32 ± 0.093 h | 3.098 ± 0.027 h | 5.27 ± 0.91 h | 9.19 ± 2.1 h | 3.94 ± 0.2 h | 6.9 ± 0.57 h | 6.25 ± 0.51 h | 11.2 ± 0.81 h
2 | MLKVLLLFVLLIAGIVVGPMIAGHQGYVLIQTDNYNIETSVTGLAIILILAMVVLFAIEWLLRRIFRTGAHTRGWFVGRKRRRARKQTEQALLKLAEGDYQQVEKLMAKNADHAEQPVVNYLLAAEAAQQRGDEARANQHLERAAELAGNDTIPVEITRVRLQLARNENHAARHGVDKLLEVTPRHPEVLRLAEQAYIRTGAWSSLLDIIPSMAKAHVGDEEHRAMLEQQAWIGLMDQARADNGSEGLRNWWKNQSRKTRHQVALQVAMAEHLIECDDHDTAQQIIIDGLKRQYDDRLLLPIPRLKTNNPEQLEKVLRQQIKNVGDRPLLWSTLGQSLMKHGEWQEASLAFRAALKQRPDAYDYAWLADALDRLHKPEEAAAMRRDGLMLTLQNNPPQ [P0ACB7] | 5.91 ± 0.1 h | 6.4161 ± 0.0029 h | – | 6.1592 ± 0.004 h | 5.98 ± 0.073 h | 3.13 ± 0.12 h | 6.13 ± 0.2 h | 13.2 ± 0.85 h | 6.64 ± 0.65 h | 12.6 ± 0.5 h | 6.1 ± 0.41 h | 12.6 ± 0.95 h
3 | MLLEQGWLVGARRVPSPHYDCRPDDETPTLLVVHNISLPPGEFGGPWIDALFTGTIDPQAHPFFAEIAHLRVSAHCLIRRDGEIVQYVPFDKRAWHAGVSQYQGRERCNDFSIGIELEGTDTLAYTDAQYQQLAAVTRALIDCYPDIAKNMTGHCDIAPDRKTDPGPAFDWARFRVLVSKETT | 5.19 ± 0.54 h | 3.72 h | 3.07 ± 0.013 h | 3.75 ± 0.89 h | 2.96 ± 0.27 h | 3.18 ± 0.31 h | 4.11 ± 0.3 h | 7.89 ± 1.5 h | 2.88 ± 0.77 h | 5.25 ± 0.51 h | 4.46 ± 0.12 h | 9.44 ± 0.099 h
4 | MLLNALASLGHKGIKTLRTFGRAGLMLFNALVGKPEFRKHAPLLVRQLYNVGVLSMLIIVVSGVFIGMVLGLQGYLVLTTYSAETSLGMLVALSLLRELGPVVAALLFAGRAGSALTAEIGLMRATEQLSSMEMMAVDPLRRVISPRFWAGVISLPLLTVIFVAVGIWGGSLVGVSWKGIDSGFFWSAMQNAVDWRMDLVNCLIKSVVFAITVTWISLFNGYDAIPTSAGISRATTRTVVHSSLAVLGLDFVLTALMFGN | – | 6.31 h | 6.03 h | 4.82 h | 5.29 h | 3.19 h | – | – | 7.45 h | 11.3 h | > 8 h | 11.55 ± 0.11 h
5 | MLMITSFANPRVAQAFVDYMATQGVILTIQQHNQSDVWLADESQAERVRAELARFLENPADPRYLAASWQAGHTGSGLHYRRYPFFAALRERAGPVTWVMMIACVVVFIAMQILGDQEVMLWLAWPFDPTLKFEFWRYFTHALMHFSLMHILFNLLWWWYLGGAVEKRLGSGKLIVITLISALLSGYVQQKFSGPWFGGLSGVVYALMGYVWLRGERDPQSGIYLQRGLIIFALIWIVAGWFDLFGMSMANGAHIAGLAVGLAMAFVDSLNARKRK | 5.94 ± 0.09 h | 7.254 ± 0.027 h | – | – | 4.85 h | – | 5.67 h | 7.94 h | – | 11.7 h | 5.84 h | 11.6 ± 1.8 h
6 | MLNETPALAPDGQPYRLLTLRNNAGMVVTLMDWGATLLSARIPLSDGSVREALLGCASPECYQDQAAFLGASIGRYANRIANSRYTFDGETVTLSPSQGVNQLHGGPEGFDKRRWQIVNQNDRQVLFALSSDDGDQGFPGNLGATVQYRLTDDNRISITYRATVDKPCPVNMTNHVYFNLDGEQSDVRNHKLQILADEYLPVDEGGIPHDGLKSVAGTSFDFRSAKIIASEFLADDDQRKVKGYDHAFLLQAKGDGKKVAAHVWSADEKLQLKVYTTAPALQFYSGNFLGGTPSRGTEPYADWQGLALESEFLPDSPNHPEWPQPDCFLRPGEEYSSLTEYQFIAE [P0A9C3] | 5.1 ± 0.083 h | 4.67 ± 0.097 h | – | 4.63 ± 0.11 h | 4.275 ± 0.041 h | 3.16 ± 0.33 h | 6.76 ± 0.95 h | 12.3 ± 1.5 h | 4.71 ± 0.91 h | 7.76 ± 0.98 h | 6.38 ± 0.48 h | –
7 | MLNSFKLSLQYILPKLWLTRLAGWGASKRAGWLTKLVIDLFVKYYKVDMKEAQKPDTASYRTFNEFFVRPLRDEVRPIDTDPNVLVMPADGVISQLGKIEEDKILQAKGHNYSLEALLAGNYLMADLFRNGTFVTTYLSPRDYHRVHMPCNGILREMIYVPGDLFSVNHLTAQNVPNLFARNERVICLFDTEFGPMAQILVGATIVGSIETVWAGTITPPREGIIKRWTWPAGENDGSVALLKGQEMGRFKLGSTVINLFAPGKVNLVEQLESLSVTKIGQPLAVSTETFVTPDAEPAPLPAEEIEAEHDASPLVDDKKDQV [P0A8K1] | 6.31 ± 0.2 h | 6.33 ± 0.086 h | 5.99 ± 0.61 h | 5.79 ± 0.1 h | 6 ± 0.58 h | 2.76 ± 0.4 h | 6.32 ± 0.66 h | 12.8 ± 0.63 h | 6.81 ± 0.24 h | – | 6.16 ± 0.32 h | 13.3 ± 0.12 h
